Experimental data: US20080219971A1 (VACCINEX, published 2008)

T1: Human CD100 (human, UniProt Q92854 22-734, limits assumed)
T1 construct: also called SEMA4D; Hu CD100
T1 sequence (looked up): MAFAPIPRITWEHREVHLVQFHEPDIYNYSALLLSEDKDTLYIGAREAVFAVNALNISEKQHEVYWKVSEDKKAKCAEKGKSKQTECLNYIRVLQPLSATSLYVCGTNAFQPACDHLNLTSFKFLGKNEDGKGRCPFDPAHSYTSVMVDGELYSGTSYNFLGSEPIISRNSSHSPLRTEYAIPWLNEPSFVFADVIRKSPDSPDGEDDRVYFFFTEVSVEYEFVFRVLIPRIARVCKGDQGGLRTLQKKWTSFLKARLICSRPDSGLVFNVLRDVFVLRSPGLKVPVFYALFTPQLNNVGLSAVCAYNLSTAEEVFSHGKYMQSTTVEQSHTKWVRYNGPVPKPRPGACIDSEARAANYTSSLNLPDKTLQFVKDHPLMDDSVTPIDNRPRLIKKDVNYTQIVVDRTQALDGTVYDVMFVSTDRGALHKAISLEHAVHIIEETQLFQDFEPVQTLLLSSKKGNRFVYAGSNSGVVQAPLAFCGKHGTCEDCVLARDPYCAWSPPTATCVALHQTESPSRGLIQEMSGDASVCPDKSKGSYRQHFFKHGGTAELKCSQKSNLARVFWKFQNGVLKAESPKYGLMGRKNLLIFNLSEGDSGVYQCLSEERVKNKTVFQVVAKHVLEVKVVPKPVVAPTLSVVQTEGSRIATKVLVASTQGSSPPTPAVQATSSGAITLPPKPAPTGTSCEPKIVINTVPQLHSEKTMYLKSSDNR


target: T1, Human CD100; assay: affinity testing, method and unit not printed in Example 10 (nM as in Table 3); mutant value, before the parentheses

Binder	Kd
MAb 2125 (antibody, V domains shown, H1651 mutant VH combined with L284; also called H1651 E100D with L284) VH: QVQLVQSGAEVKKPGSSVKVSCKASGYTFTDYYMDWVRQAPGQGLEWMGRVNPYHGGATYNQKFKGRVTITADKSTSTAYMELSSLRSEDTAVYYCAREDNSYDGYYGMDYWGQGTLVTVSS VL: DIVMTQSPLSLPVSPGEPATINCKSSQSLFNSGNQKNYLAWYLQKPGQPPKLLIYGASTRESGVPDRFSGSGSGTDFTLTISSLQAEDVAVYYCQNDHTYPYTFGQGTKLEIK	0.66 nM
MAb 2139 (antibody, V domains shown, H1651 mutant VH combined with L284; also called H1651 K23T with L284) VH: QVQLVQSGAEVKKPGSSVKVSCTASGYTFTDYYMDWVRQAPGQGLEWMGRVNPYHGGATYNQKFKGRVTITADKSTSTAYMELSSLRSEDTAVYYCAREENSYDGYYGMDYWGQGTLVTVSS VL: DIVMTQSPLSLPVSPGEPATINCKSSQSLFNSGNQKNYLAWYLQKPGQPPKLLIYGASTRESGVPDRFSGSGSGTDFTLTISSLQAEDVAVYYCQNDHTYPYTFGQGTKLEIK	0.61 nM
MAb 2208 (antibody, V domains shown, H1651 mutant VH combined with L284; also called H1651 A58G with L284) VH: QVQLVQSGAEVKKPGSSVKVSCKASGYTFTDYYMDWVRQAPGQGLEWMGRVNPYHGGGTYNQKFKGRVTITADKSTSTAYMELSSLRSEDTAVYYCAREENSYDGYYGMDYWGQGTLVTVSS VL: DIVMTQSPLSLPVSPGEPATINCKSSQSLFNSGNQKNYLAWYLQKPGQPPKLLIYGASTRESGVPDRFSGSGSGTDFTLTISSLQAEDVAVYYCQNDHTYPYTFGQGTKLEIK	0.08 nM
MAb 2202 (antibody, V domains shown, H1651 mutant VH combined with L284; also called H1651 G57F with L284) VH: QVQLVQSGAEVKKPGSSVKVSCKASGYTFTDYYMDWVRQAPGQGLEWMGRVNPYHGFATYNQKFKGRVTITADKSTSTAYMELSSLRSEDTAVYYCAREENSYDGYYGMDYWGQGTLVTVSS VL: DIVMTQSPLSLPVSPGEPATINCKSSQSLFNSGNQKNYLAWYLQKPGQPPKLLIYGASTRESGVPDRFSGSGSGTDFTLTISSLQAEDVAVYYCQNDHTYPYTFGQGTKLEIK	0.06 nM

Further lines, results first:

Kd	Binder
0.52 nM	MAb 2117 (antibody, V domains shown, H1651 mutant VH combined with L284; also called H1651 D104T with L284) VH: QVQLVQSGAEVKKPGSSVKVSCKASGYTFTDYYMDWVRQAPGQGLEWMGRVNPYHGGATYNQKFKGRVTITADKSTSTAYMELSSLRSEDTAVYYCAREENSYTGYYGMDYWGQGTLVTVSS VL: DIVMTQSPLSLPVSPGEPATINCKSSQSLFNSGNQKNYLAWYLQKPGQPPKLLIYGASTRESGVPDRFSGSGSGTDFTLTISSLQAEDVAVYYCQNDHTYPYTFGQGTKLEIK
0.06 nM	MAb 2163 (antibody, V domains shown, H1651 mutant VH combined with L284; also called H1651 D31K with L284) VH: QVQLVQSGAEVKKPGSSVKVSCKASGYTFTKYYMDWVRQAPGQGLEWMGRVNPYHGGATYNQKFKGRVTITADKSTSTAYMELSSLRSEDTAVYYCAREENSYDGYYGMDYWGQGTLVTVSS VL: DIVMTQSPLSLPVSPGEPATINCKSSQSLFNSGNQKNYLAWYLQKPGQPPKLLIYGASTRESGVPDRFSGSGSGTDFTLTISSLQAEDVAVYYCQNDHTYPYTFGQGTKLEIK
0.43 nM	MAb 2144 (antibody, V domains shown, H1651 mutant VH combined with L284; also called H1651 Q6A with L284) VH: QVQLVASGAEVKKPGSSVKVSCKASGYTFTDYYMDWVRQAPGQGLEWMGRVNPYHGGATYNQKFKGRVTITADKSTSTAYMELSSLRSEDTAVYYCAREENSYDGYYGMDYWGQGTLVTVSS VL: DIVMTQSPLSLPVSPGEPATINCKSSQSLFNSGNQKNYLAWYLQKPGQPPKLLIYGASTRESGVPDRFSGSGSGTDFTLTISSLQAEDVAVYYCQNDHTYPYTFGQGTKLEIK

target: T1, Human CD100; assay: affinity testing, method and unit not printed in Example 10 (nM as in Table 3)

Binder	Kd
MAb 2281 (antibody, V domains shown, Double mutant of H1651 with L284; also called H1651 K23T G57F with L284) VH: QVQLVQSGAEVKKPGSSVKVSCTASGYTFTDYYMDWVRQAPGQGLEWMGRVNPYHGFATYNQKFKGRVTITADKSTSTAYMELSSLRSEDTAVYYCAREENSYDGYYGMDYWGQGTLVTVSS VL: DIVMTQSPLSLPVSPGEPATINCKSSQSLFNSGNQKNYLAWYLQKPGQPPKLLIYGASTRESGVPDRFSGSGSGTDFTLTISSLQAEDVAVYYCQNDHTYPYTFGQGTKLEIK	0.09 nM
MAb 2284 (antibody, V domains shown, Double mutant of H1651 with L284; also called H1651 K23T Y60F with L284) VH: QVQLVQSGAEVKKPGSSVKVSCTASGYTFTDYYMDWVRQAPGQGLEWMGRVNPYHGGATFNQKFKGRVTITADKSTSTAYMELSSLRSEDTAVYYCAREENSYDGYYGMDYWGQGTLVTVSS VL: DIVMTQSPLSLPVSPGEPATINCKSSQSLFNSGNQKNYLAWYLQKPGQPPKLLIYGASTRESGVPDRFSGSGSGTDFTLTISSLQAEDVAVYYCQNDHTYPYTFGQGTKLEIK	0.24 nM
MAb 2277 (antibody, V domains shown, Double mutant of H1651 with L284; also called H1651 Q6A T59F with L284) VH: QVQLVASGAEVKKPGSSVKVSCKASGYTFTDYYMDWVRQAPGQGLEWMGRVNPYHGGAFYNQKFKGRVTITADKSTSTAYMELSSLRSEDTAVYYCAREENSYDGYYGMDYWGQGTLVTVSS VL: DIVMTQSPLSLPVSPGEPATINCKSSQSLFNSGNQKNYLAWYLQKPGQPPKLLIYGASTRESGVPDRFSGSGSGTDFTLTISSLQAEDVAVYYCQNDHTYPYTFGQGTKLEIK	0.09 nM
MAb 2278 (antibody, V domains shown, Double mutant of H1651 with L284; also called H1651 Q6A Y60F with L284) VH: QVQLVASGAEVKKPGSSVKVSCKASGYTFTDYYMDWVRQAPGQGLEWMGRVNPYHGGATFNQKFKGRVTITADKSTSTAYMELSSLRSEDTAVYYCAREENSYDGYYGMDYWGQGTLVTVSS VL: DIVMTQSPLSLPVSPGEPATINCKSSQSLFNSGNQKNYLAWYLQKPGQPPKLLIYGASTRESGVPDRFSGSGSGTDFTLTISSLQAEDVAVYYCQNDHTYPYTFGQGTKLEIK	0.11 nM
MAb 2279 (antibody, V domains shown, Double mutant of H1651 with L284; also called H1651 Q6A Y60V with L284) VH: QVQLVASGAEVKKPGSSVKVSCKASGYTFTDYYMDWVRQAPGQGLEWMGRVNPYHGGATVNQKFKGRVTITADKSTSTAYMELSSLRSEDTAVYYCAREENSYDGYYGMDYWGQGTLVTVSS VL: DIVMTQSPLSLPVSPGEPATINCKSSQSLFNSGNQKNYLAWYLQKPGQPPKLLIYGASTRESGVPDRFSGSGSGTDFTLTISSLQAEDVAVYYCQNDHTYPYTFGQGTKLEIK	0.14 nM

Now from value to binder:

Kd	Binder
0.13 nM	MAb 2283 (antibody, V domains shown, Double mutant of H1651 with L284; also called H1651 K23T T59F with L284) VH: QVQLVQSGAEVKKPGSSVKVSCTASGYTFTDYYMDWVRQAPGQGLEWMGRVNPYHGGAFYNQKFKGRVTITADKSTSTAYMELSSLRSEDTAVYYCAREENSYDGYYGMDYWGQGTLVTVSS VL: DIVMTQSPLSLPVSPGEPATINCKSSQSLFNSGNQKNYLAWYLQKPGQPPKLLIYGASTRESGVPDRFSGSGSGTDFTLTISSLQAEDVAVYYCQNDHTYPYTFGQGTKLEIK
0.1 nM	MAb 2285 (antibody, V domains shown, Double mutant of H1651 with L284; also called H1651 K23T Y60V with L284) VH: QVQLVQSGAEVKKPGSSVKVSCTASGYTFTDYYMDWVRQAPGQGLEWMGRVNPYHGGATVNQKFKGRVTITADKSTSTAYMELSSLRSEDTAVYYCAREENSYDGYYGMDYWGQGTLVTVSS VL: DIVMTQSPLSLPVSPGEPATINCKSSQSLFNSGNQKNYLAWYLQKPGQPPKLLIYGASTRESGVPDRFSGSGSGTDFTLTISSLQAEDVAVYYCQNDHTYPYTFGQGTKLEIK
0.09 nM	MAb 2275 (antibody, V domains shown, Double mutant of H1651 with L284; also called H1651 Q6A G57F with L284) VH: QVQLVASGAEVKKPGSSVKVSCKASGYTFTDYYMDWVRQAPGQGLEWMGRVNPYHGFATYNQKFKGRVTITADKSTSTAYMELSSLRSEDTAVYYCAREENSYDGYYGMDYWGQGTLVTVSS VL: DIVMTQSPLSLPVSPGEPATINCKSSQSLFNSGNQKNYLAWYLQKPGQPPKLLIYGASTRESGVPDRFSGSGSGTDFTLTISSLQAEDVAVYYCQNDHTYPYTFGQGTKLEIK
0.09 nM	MAb 2282 (antibody, V domains shown, Double mutant of H1651 with L284; also called H1651 K23T G57Y with L284) VH: QVQLVQSGAEVKKPGSSVKVSCTASGYTFTDYYMDWVRQAPGQGLEWMGRVNPYHGYATYNQKFKGRVTITADKSTSTAYMELSSLRSEDTAVYYCAREENSYDGYYGMDYWGQGTLVTVSS VL: DIVMTQSPLSLPVSPGEPATINCKSSQSLFNSGNQKNYLAWYLQKPGQPPKLLIYGASTRESGVPDRFSGSGSGTDFTLTISSLQAEDVAVYYCQNDHTYPYTFGQGTKLEIK
0.09 nM	MAb 2276 (antibody, V domains shown, Double mutant of H1651 with L284; also called H1651 Q6A G57Y with L284) VH: QVQLVASGAEVKKPGSSVKVSCKASGYTFTDYYMDWVRQAPGQGLEWMGRVNPYHGYATYNQKFKGRVTITADKSTSTAYMELSSLRSEDTAVYYCAREENSYDGYYGMDYWGQGTLVTVSS VL: DIVMTQSPLSLPVSPGEPATINCKSSQSLFNSGNQKNYLAWYLQKPGQPPKLLIYGASTRESGVPDRFSGSGSGTDFTLTISSLQAEDVAVYYCQNDHTYPYTFGQGTKLEIK
0.13 nM	MAb 2280 (antibody, V domains shown, Double mutant of H1651 with L284; also called H1651 K23T D31K with L284) VH: QVQLVQSGAEVKKPGSSVKVSCTASGYTFTKYYMDWVRQAPGQGLEWMGRVNPYHGGATYNQKFKGRVTITADKSTSTAYMELSSLRSEDTAVYYCAREENSYDGYYGMDYWGQGTLVTVSS VL: DIVMTQSPLSLPVSPGEPATINCKSSQSLFNSGNQKNYLAWYLQKPGQPPKLLIYGASTRESGVPDRFSGSGSGTDFTLTISSLQAEDVAVYYCQNDHTYPYTFGQGTKLEIK
0.1 nM	MAb 2274 (antibody, V domains shown, Double mutant of H1651 with L284; also called H1651 Q6A D31K with L284) VH: QVQLVASGAEVKKPGSSVKVSCKASGYTFTKYYMDWVRQAPGQGLEWMGRVNPYHGGATYNQKFKGRVTITADKSTSTAYMELSSLRSEDTAVYYCAREENSYDGYYGMDYWGQGTLVTVSS VL: DIVMTQSPLSLPVSPGEPATINCKSSQSLFNSGNQKNYLAWYLQKPGQPPKLLIYGASTRESGVPDRFSGSGSGTDFTLTISSLQAEDVAVYYCQNDHTYPYTFGQGTKLEIK
